Patent publication US20210253718A1, “FRIZZLED5 PROTEIN-BINDING AGENTS” (Modmab Therapeutics Corporation, priority 2016, published 2021)

Tests used:
[1] = tested on: CHO cells not expressing Frizzled CRD; test: Flow cytometry of anti-FZD5 Fab binding to CHO cells not expressing Frizzled CRD (background)
Source text: (§1) The binding of anti-FZD5 Fabs to cell surface-expressed Frizzled protein was further determined for each member of the Frizzled family via flow cytometry and immunofluorescence analysis of a panel of 10 CHO cell lines, each ectopically over-expressing the extracellular cysteine-rich domain (CRD) of a different Frizzled protein family member.

[2] = target: T1, FZD5 CRD (Homo sapiens, UniProt Q13467); test: Flow cytometry of anti-FZD5 Fab binding to CHO cells overexpressing Frizzled CRD
T1 construct: K29-T156; GPI anchor signal (C); expressed in transfected cells; host or cells: CHO cells, lentiviral pLenti-puro
T1 sequence (Q13467 29-156): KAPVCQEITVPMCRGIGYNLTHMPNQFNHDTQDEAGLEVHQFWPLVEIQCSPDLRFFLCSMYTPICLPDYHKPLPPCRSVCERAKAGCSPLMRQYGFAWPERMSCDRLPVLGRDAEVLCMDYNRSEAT
Experimental: (§2) Plasmids: pLCKO lentiviral vector used for knockout (TKO) library construction and expression of individual gRNAs was constructed as described previously (Hart et al., 2015). Briefly, single guide RNA (sgRNA) scaffold was amplified from px330 (Addgene 42230) and cloned into pLKO.TRC005 lentiviral vector (Broad Institute, Cambridge, Mass.) using AgeI/EcoRI restriction sites. BfuAI sites were added at the 5′ end of the sgRNA scaffold for cloning the TKO library or individual gRNA target sequences. Lenti Cas9-2A-BsdR vector used to generate Cas9 stable expression cell lines was constructed as described previously (Hart et al., 2015). Briefly, lentiCRISPR pXPR_001 (Addgene 49535) was modified through removal of the sgRNA scaffold region through NdeI/EcoRI digest and blunt ends generation using Large Klenow Fragment (NEB). 2A-puro was replaced with 2A-BsdR by PCR using the NheI/MluI sites. Each of the 10 human Frizzled cysteine rich domains (CRDs) were cloned into the lentiviral expression plasmid pLenti-puro in the following cassette: FZD_CRD-MYC-GPI.
(§3) Flow cytometry: Primary staining of cells was performed by treatment with 200 nM Frizzled profiler Fab. Alexa Fluor 488 AffiniPure F(ab′)2 was used as the secondary antibody (Jackson ImmunoResearch #109-546-097). c-Myc (9E10) IgG1 (primary antibody, Santa Cruz, lot #D0306) and Alexa Fluor 488 IgG (secondary antibody, Life technologies, lot #1458649) were used as controls. Dead cells were excluded by staining with Fixable Viability Dye eFluor 660 (eBioscience, catalogue number 65-0864). All reagents were used as per manufacturer's instructions. Flow cytometry was performed on a BD FACSCanto II flow cytometer (BD Biosciences), and data were analyzed with FlowJo software (FlowJo, LLC).
(§4) To confirm that the FZD5-WNT7B circuit is not driven simply by expression and rule out the possibility of a disconnect between RNA and protein levels for the Wnt receptors in HPAF-II cells, a panel of recombinant Fabs were generated, alternatively referred to herein as ‘Frizzled profiler’, that can detect and discriminate all but one of the ten Frizzled receptors. […] To characterize the binding specificity of these Fabs on cells, a panel of 10 CHO cell lines was generated, each expressing the CRD domain of a different myc-tagged Frizzled family member anchored at the plasma membrane through a GPI anchor (CHO-myc-FZDGPI). Despite the high sequence identity between Frizzled family members (FIG. 7A, FIG. 7B), selective Fabs were identified for FZD4, FZD5, FZD6 and FZD10 as assessed by immunofluorescence and flow cytometry (FIG. 7D and FIG. 8). […] The FZD8 CRD is most homologous to that of FZD5 (FIG. 7B). These Fabs can be used to discriminate expression of FZD1, FZD2, FZD4, FZD5, FZD6, FZD7, FZD8, FZD9 and FZD10 (FIG. 7D and FIG. 8). The ‘Frizzled profiler’ therefore consists of 10 different Fabs that can be used to discriminate expression of 9 different Frizzled family members. The Frizzled profiler was then used to confirm that HPAF-II cells express FZD1, FZD5, FZD6 and possibly FZD8 (FIG. 7E).
as §1

[3] = target: T2, FZD9 CRD (Homo sapiens, UniProt O00144); test: as above
T2 construct: G35-A161; GPI anchor signal (C); expressed in transfected cells; host or cells: CHO cells, lentiviral pLenti-puro
T2 sequence (O00144 35-161): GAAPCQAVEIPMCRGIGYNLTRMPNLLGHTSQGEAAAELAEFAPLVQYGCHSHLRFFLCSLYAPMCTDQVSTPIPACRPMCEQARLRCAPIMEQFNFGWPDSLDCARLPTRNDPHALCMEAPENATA
Experimental: as §2, §3, §4, §1

[4] = target: T3, FZD10 CRD (Homo sapiens, UniProt Q9ULW2); test: as above
T3 construct: 30-156; GPI anchor signal (C); expressed in transfected cells; host or cells: CHO cells, lentiviral pLenti-puro
T3 sequence (Q9ULW2 30-156): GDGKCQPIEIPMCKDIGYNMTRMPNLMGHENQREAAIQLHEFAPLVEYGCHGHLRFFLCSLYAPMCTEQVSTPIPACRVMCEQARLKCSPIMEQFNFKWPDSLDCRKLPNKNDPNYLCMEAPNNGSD
Experimental: as §2, §3, §4, §1

[5] = target: T4, FZD2 CRD (Homo sapiens, UniProt Q14332); test: as above
T4 construct: D35-P161; GPI anchor signal (C); expressed in transfected cells; host or cells: CHO cells, lentiviral pLenti-puro
Experimental: as §2, §3, §4, §1

[6] = target: T5, FZD6 CRD (Homo sapiens, UniProt O60353); test: as above
T5 construct: S20-P146; GPI anchor signal (C); expressed in transfected cells; host or cells: CHO cells, lentiviral pLenti-puro
T5 sequence (O60353 20-146): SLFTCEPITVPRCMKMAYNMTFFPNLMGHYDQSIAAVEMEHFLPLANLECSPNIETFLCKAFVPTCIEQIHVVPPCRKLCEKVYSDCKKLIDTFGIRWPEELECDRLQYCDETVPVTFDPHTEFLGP
Experimental: as §2, §3, §4, §1

[7] = target: T6, FZD4 CRD (Homo sapiens, UniProt Q9ULV1); test: as above
T6 construct: E42-V167; GPI anchor signal (C); expressed in transfected cells; host or cells: CHO cells, lentiviral pLenti-puro
T6 sequence (Q9ULV1 42-167): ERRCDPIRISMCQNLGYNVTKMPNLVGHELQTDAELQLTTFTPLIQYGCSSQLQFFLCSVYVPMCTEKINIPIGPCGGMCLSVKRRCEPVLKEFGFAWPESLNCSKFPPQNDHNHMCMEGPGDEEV
Experimental: as §2, §3, §4, §1

Fab-2931: anti-FZD5 Fab with antibody variable region Fv-2931; CDR SEQ ID NOs: 35, 36, 70, 102, 146, 176 (CDR 1 QSVSSA; CDR 2 SAS; CDR 3 QQSSYSLIT; CDR 4 GFNLSYSS; CDR 5 ISPYSGST; CDR 6 ARGSYWYVGGGWWVSGHGGMDY)
Median fluorescence, Frizzled CRD overexpressed on CHO cells: None [1]: 3.11
Median fluorescence, Frizzled CRD overexpressed on CHO cells: FZD5 [2]: 28.13
Median fluorescence, Frizzled CRD overexpressed on CHO cells: FZD9 [3]: 2.76
Median fluorescence, Frizzled CRD overexpressed on CHO cells: FZD10 [4]: 2.59
Median fluorescence, Frizzled CRD overexpressed on CHO cells: FZD2 [5]: 4.7
Median fluorescence, Frizzled CRD overexpressed on CHO cells: FZD6 [6]: 2.89
Median fluorescence, Frizzled CRD overexpressed on CHO cells: FZD4 [7]: 3.65
